Results from article doi:10.1101/2020.02.25.965475.

What was measured:
Assay in all cases: EMSA
FLAG-TEN N338Y = molecular target: T1, FLAG-TEN N338Y (Cucumis sativus (cucumber), UniProt A0A0A0KSL1 1-395, N338Y)
T1 sequence: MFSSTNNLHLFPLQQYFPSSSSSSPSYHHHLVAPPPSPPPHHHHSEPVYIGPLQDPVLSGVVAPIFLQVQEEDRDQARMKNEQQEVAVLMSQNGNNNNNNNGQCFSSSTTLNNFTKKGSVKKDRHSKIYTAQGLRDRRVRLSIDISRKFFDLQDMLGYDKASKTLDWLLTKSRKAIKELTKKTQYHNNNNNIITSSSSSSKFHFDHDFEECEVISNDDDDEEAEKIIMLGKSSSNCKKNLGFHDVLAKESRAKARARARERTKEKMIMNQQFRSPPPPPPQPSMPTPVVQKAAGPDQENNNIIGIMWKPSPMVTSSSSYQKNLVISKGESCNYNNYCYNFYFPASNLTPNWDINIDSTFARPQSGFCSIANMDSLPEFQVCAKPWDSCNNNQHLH

FLAG-ΔN121 (TCP+R+C130) = molecular target: T2, FLAG-ΔN121 (TCP+R+C130) (Cucumis sativus (cucumber), UniProt A0A0A0KSL1 122-395, del1-121)
T2 sequence: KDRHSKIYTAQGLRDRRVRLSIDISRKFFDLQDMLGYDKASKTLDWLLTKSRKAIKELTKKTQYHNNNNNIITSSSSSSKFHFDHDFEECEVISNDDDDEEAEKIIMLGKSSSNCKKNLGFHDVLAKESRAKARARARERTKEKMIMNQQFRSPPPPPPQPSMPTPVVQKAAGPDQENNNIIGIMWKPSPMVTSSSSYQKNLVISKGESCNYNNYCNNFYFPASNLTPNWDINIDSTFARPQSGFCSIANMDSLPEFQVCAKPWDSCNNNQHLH

MBP-C = molecular target: T3, MBP-C (Cucumis sativus (cucumber), UniProt A0A0A0KSL1 265-395)
T3 sequence: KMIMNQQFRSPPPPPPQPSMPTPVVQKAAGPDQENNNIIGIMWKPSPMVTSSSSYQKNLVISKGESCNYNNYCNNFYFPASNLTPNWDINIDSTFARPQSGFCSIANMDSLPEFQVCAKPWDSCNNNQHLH

FLAG-TEN = molecular target: T4, FLAG-TEN (Cucumis sativus (cucumber), UniProt A0A0A0KSL1 1-395)
T4 sequence: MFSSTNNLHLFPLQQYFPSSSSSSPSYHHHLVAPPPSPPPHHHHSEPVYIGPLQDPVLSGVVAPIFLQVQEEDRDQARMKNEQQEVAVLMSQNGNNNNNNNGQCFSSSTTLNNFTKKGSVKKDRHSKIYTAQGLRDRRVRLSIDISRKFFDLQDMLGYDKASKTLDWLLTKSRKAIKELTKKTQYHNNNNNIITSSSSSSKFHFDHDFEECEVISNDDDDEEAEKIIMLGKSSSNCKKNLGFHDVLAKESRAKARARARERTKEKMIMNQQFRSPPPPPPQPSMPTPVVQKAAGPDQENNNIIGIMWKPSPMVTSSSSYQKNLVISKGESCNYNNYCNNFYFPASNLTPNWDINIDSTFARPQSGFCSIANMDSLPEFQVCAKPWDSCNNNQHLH

B1: CTCCGCC probe (dsDNA)
DNA 1: AAATTAAGAATATTTAACTCCGCCAATTCAAATATAAAGTATTAATT
DNA 2: AATTAATACTTTATATTTGAATTGGCGGAGTTAAATATTCTTAATTT
B1: no binding (FLAG-TEN N338Y); binds (FLAG-ΔN121 (TCP+R+C130)); no binding (MBP-C). B1: binds (FLAG-TEN).

B2: GGTCCC probe (GTGGTCCCAC) (dsDNA)
DNA 1: AAATTAAGAATATTGTGGTCCCACTCAAATATAAAGTATTAATT
DNA 2: AATTAATACTTTATATTTGAGTGGGACCACAATATTCTTAATTT
B2: binds (FLAG-TEN N338Y).
